# Test results from patent US20220213196A1 (published 2022).
# T1: MAGEA3 peptide on HLA-A*01:01 (human)
# T1 peptide: EVDPIGHLY
# B1:  (TCR, V domains shown)
# Valpha: KQEVTQIPAALSVPEGENLVLNCSFTDSAIYNLQWFRQDPGKGLTSLLLIQSSQREQTSGRLNASLDKSSGRSTLYIAASQPGDSATYLCAVDNYGQNFVFGPGTRLSVLP
# Vbeta: RPQVTQNPRYLITVTGKKLTVTCSQNMNHEYMSWYRQDPGLGLRQIYYSMNVEVTDKGDVPEGYKVSRKEKRNFPLILESPSPNQTSLYFCASSTTGSSPLHFGNGTRLTVT
# Target: T1, MAGEA3 peptide on HLA-A*01:01
# Test: multimer staining
binder,measurement,value
B1,binding result,recognises
